Reference: US20180230213A1 (AVEO PHARMACEUTICALS, published 2018)

How the values were obtained:
[1] = biological target: T1, human Notch3 on the cell surface (human, UniProt Q9UM47 40-2321); experiment: cell-based or functional assay
[2] = biological target: T1, human Notch3 on the cell surface; experiment: FACS on CHO N3 cells (human Notch3), 4 C, one site binding fit
Protocol: (§1) Binding to cell surface human Notch3 by the antibody 4F11 was measured at 4° C., using Fluorescence Activated Cell Sorting (FACS). CHO N3 (Flp-In-CHO cells (Invitrogen) stably transfected with human Notch3), HCC2429 cells, and RL-952 cells expressing human Notch3 were washed once with PBS containing calcium chloride and magnesium chloride (Invitrogen) and harvested using cell dissociation buffer (Invitrogen). Cells were washed a second time with PBS and resuspended in FACS buffer (PBS with 0.5% BSA (Sigma-Aldrich)) for a final cell concentration of 250,000 cells per well into a 96-well v-bottom plate. Purified antibodies were diluted in FACS buffer over a concentration range of 100 nM to 0.1 nM. Cells were then incubated at 4° C. with […] of antibody for one hour, washed with FACS buffer twice, and resuspended in […] of goat-anti mouse PE-conjugated antibody (Jackson Immuno Research). Cells were incubated at 4° C. for 30 minutes in the dark, washed once with FACS buffer, and then analyzed using a Beckman Coulter Cytomics FC 500 instrument. The geometric mean of the florescent intensity was then calculated for each antibody concentration. These values were then entered into Prism software (GraphPad, La Jolla, Calif.) and used to generate a binding curve by plotting geometric mean versus antibody concentration. […]

[3] = biological target: T1, human Notch3 on the cell surface; experiment: FACS on RL-952 cells (human Notch3), 4 C, one site binding fit
Protocol: as §1

[4] = biological target: T1, human Notch3 on the cell surface; experiment: FACS on HCC2429 cells (human Notch3), 4 C, one site binding fit
Protocol: as §1

[5] = biological target: T2, recombinant human Notch3 extracellular domain (containing EGF like domains 1-11) Fc fusion protein (human, UniProt Q9UM47 40-467); experiment: SPR Biacore T100, 4F11 captured by anti-mouse IgG, rhNotch3-Fc analyte, 37 C
T2 construct: domain: EGF like domains 1-11; also called rhNotch3-Fc; rhNotch3
T2 sequence (looked up): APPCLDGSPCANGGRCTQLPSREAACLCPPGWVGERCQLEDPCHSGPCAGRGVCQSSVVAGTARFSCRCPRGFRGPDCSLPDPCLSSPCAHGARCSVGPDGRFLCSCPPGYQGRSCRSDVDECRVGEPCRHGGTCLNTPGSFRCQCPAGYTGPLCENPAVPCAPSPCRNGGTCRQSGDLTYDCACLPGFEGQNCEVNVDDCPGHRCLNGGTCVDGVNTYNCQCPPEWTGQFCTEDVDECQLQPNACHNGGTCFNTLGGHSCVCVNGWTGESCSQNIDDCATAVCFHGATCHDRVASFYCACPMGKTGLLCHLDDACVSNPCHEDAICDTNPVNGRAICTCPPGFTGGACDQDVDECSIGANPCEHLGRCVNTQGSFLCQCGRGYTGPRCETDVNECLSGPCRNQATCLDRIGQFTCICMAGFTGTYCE
Protocol: The binding affinity and kinetics of binding of antibody 4F11 to recombinant human Notch3 extracellular domain (containing EGF like domains 1-11) Fc fusion protein (rhNotch3-Fc (R&D Systems, Inc., Minneapolis, Minn.)) were measured by surface plasmon resonance using a Biacore® T100 instrument (GE Healthcare, Piscataway, N.J.).
Rabbit anti-mouse IgGs (GE Healthcare) were immobilized on carboxymethylated dextran CM4 sensor chips (GE Healthcare) by amine coupling, according to a standard protocol. Analyses were performed at 25° C. and 37° C. using PBS containing 0.05% surfactant P20 as running buffer. The antibody was captured in individual flow cells at a flow rate of 10 μl/minute. Injection time was varied for each antibody to yield an Rmax between 30 and 60 resonance units (RU). Buffer or rhNotch3-Fc diluted in running buffer was injected sequentially over a reference surface (no antibody captured) and the active surface (antibody to be tested) for 240 seconds at 60 μl/minute. The dissociation phase was monitored for up to 1500 seconds. The surface was then regenerated with two 60-second injections of 10 mM Glycine-HCl, pH 2.25, at a flow rate of 30 μl/minute. The rhNotch3-Fc concentration range tested was 100 nM to 3.125 nM (2 fold dilution).
Kinetic parameters were determined using the kinetic function of the BIAevaluation software (GE Healthcare) with double reference subtraction. Kinetic parameters for the antibody, kₐ (association rate constant), kd (dissociation rate constant) and KD (equilibrium dissociation constant) were determined.

rhNotch1-Fc = biological target: T3, rhNotch1-Fc (human, UniProt P46531 19-526); experiment: BLI (Octet QK): rhNotch1-Fc loaded on anti-human-Fc sensors, then antibody 4F11 in solution
T3 construct: also called human Notch1 protein; R&D Cat. No. 3647-TK-050
Protocol: Antibody 4F11 was tested for binding to human Notch1, human Notch2, or human Notch3 proteins. Binding measurements were made by biolayer interferometry (BLI), using a FortéBio Octet® QK instrument (FortéBio, Menlo Park, Calif.). Anti-human-Fc sensors were soaked in PBS containing 1 mg/ml BSA for five minutes prior to binding of antibodies. Then the following proteins (400 nM, in PBS containing 1 mg/ml BSA) were allowed to bind to the sensors: rhNotch1-Fc (R&D Systems, Minneapolis, Minn.; Cat. No. 3647-TK-050), rhNotch2-Fc (R&D Cat. No. 3735-NT-050), rhNotch3-Fc (R&D Cat. No. 1559-NT-050), or rmNotch3-Fc (R&D Cat. No. 1308-NT-050). Notch protein bound sensors were immersed in antibody solution (50 μg/ml) to allow binding of antibody to the Notch protein. Binding was detected by shifts in the interference pattern.

EC50, inhibition of Notch3-dependent reporter activity stimulated by DLL1 [1]: 6 nM
EC50, inhibition of Notch3-dependent reporter activity stimulated by DLL4 [1]: 4.7 nM
EC50, inhibition of Notch3-dependent reporter activity stimulated by Jag1 [1]: 2.6 nM
EC50, inhibition of Notch3-dependent reporter activity stimulated by Jag2 [1]: 0.4 nM
Kd [2]: 0.36 nM
Kd [3]: 0.963 nM
Kd [4]: 2.58 nM
Kd [5]: 0.78 nM
koff [5]: 5.7e-05 s⁻¹
kon [5]: 75000 M⁻¹ s⁻¹
binding result (rhNotch1-Fc): no binding
B1: antibody 4F11 (murine monoclonal anti-human Notch3) (antibody, mouse IgG1, kappa, V domains shown)
VH: EVQLVESGGGLVKPGGSLKLSCAASGFAFSSYDMSWVRQTPEKRLEWVAYISRGGGSTYYPDTVKGRFTISRDNAKNTLYLQMSSLKSEDTAMYYCGRHATTAYWYFDVWGAGTTVTVSS
VL: DVVMTQTPLSLPVSLGDQASISCRSSQSLVHTNGNTYLHWYLQKPGQSPKLLIYKVSNRFSGVPDRFSGSGSGTDFTLKISRVEAEDLGVYFCSQSTHVPWTFGGGTKLEIKR
notes: Mouse IgG1 kappa purified from hybridoma; also called mu4F11; murine 4F11
